16 molecules from patent US20180162947A1 (UCB, published 2018) can be followed below.

Sequences and labels used below:
B1: 969gH2gL4 (antibody, human IgG4 S228P, kappa, name in Kabat numbering, V domains shown)
VH: EVTLKESGPALVKPTQTLTLTCTFSGFSLTTYGMGVGWIRQPPGKALEWLANIWWDDDKYYNPSLKNRLTISKDTSKNQVVLTMTNMDPVDTATYYCARIGPIKYPTAPYRYFDFWGQGTMVTVSS
VL: DIQMTQSPSSLSASVGDRVTITCLASEDIYDNLAWYQKKPGKAPKLLIYYASSLQDGVPSRFSGSGSGTDYTLTISSLQPEDFATYYCLQDSEYPWTFGGGTKVEIKR
notes: Humanised IgG4 (S241P)/kappa; positions are Kabat; also called Ab969.g7
B2: 969gH1gL1 (antibody, human IgG4 S228P, kappa, name in Kabat numbering, V domains shown)
VH: B1 VH with V80A
VL: B1 VL with Y87F
notes: Humanised IgG4 (S241P)/kappa; positions are Kabat; also called Ab969.g1
B3: 969gH2gL8 (antibody, human IgG4 S228P, kappa, name in Kabat numbering, V domains shown)
VH: B1 VH
VL: B1 VL with K38Q, Y71F
notes: Humanised IgG4 (S241P)/kappa, no donor residues; position is Kabat; also called Ab969.g4
B4: 969gH2gL1 (antibody, human IgG4 S228P, kappa, name in Kabat numbering, V domains shown)
VH: B1 VH
VL: B1 VL with Y87F
notes: Humanised IgG4 (S241P)/kappa; positions are Kabat; also called Ab969.g6
B5: 969gH2gL7 SG (antibody, human IgG4 S228P, kappa, V domains shown)
VH: B1 VH
VL: B1 VL with K38Q, D56S
notes: Humanised IgG4 (S241P)/kappa; also called 969H2gL7(SG)
B6: 969gH1gL6 (antibody, human IgG4 S228P, kappa, name in Kabat numbering, V domains shown)
VH: B1 VH with V80A
VL: B1 VL with Y71F
notes: Humanised IgG4 (S241P)/kappa; positions are Kabat
B7: 969gH2gL5 (antibody, human IgG4 S228P, kappa, name in Kabat numbering, V domains shown)
VH: B1 VH
VL: B1 VL with K38Q, Y71F, Y87F
notes: as for B6
B8: 969gH1gL8 (antibody, human IgG4 S228P, kappa, name in Kabat numbering, V domains shown)
VH: B1 VH with V80A
VL: B1 VL with K38Q, Y71F
notes: as for B6
B9: 969gH1gL4 (antibody, human IgG4 S228P, kappa, name in Kabat numbering, V domains shown)
VH: B1 VH with V80A
VL: B1 VL
notes: as for B6
B10: 969gH1gL7 (antibody, human IgG4 S228P, kappa, name in Kabat numbering, V domains shown)
VH: B1 VH with V80A
VL: B1 VL with K38Q
notes: Humanised IgG4 (S241P)/kappa; position is Kabat
B11: 969gH2gL6 (antibody, human IgG4 S228P, kappa, name in Kabat numbering, V domains shown)
VH: B1 VH
VL: B1 VL with Y71F
notes: Humanised IgG4 (S241P)/kappa; positions are Kabat; also called Ab969.g9
B12: 969gH1gL2 (antibody, human IgG4 S228P, kappa, name in Kabat numbering, V domains shown)
VH: B1 VH with V80A
VL: B1 VL with K38Q, Y87F
notes: as for B6
B13: 969gH2gL2 (antibody, human IgG4 S228P, kappa, name in Kabat numbering, V domains shown)
VH: B1 VH
VL: B1 VL with K38Q, Y87F
notes: as for B6
B14: 969gH2gL3 (antibody, human IgG4 S228P, kappa, name in Kabat numbering, V domains shown)
VH: B1 VH
VL: B1 VL with Y71F, Y87F
notes: as for B6
B15: 969gH1gL3 (antibody, human IgG4 S228P, kappa, name in Kabat numbering, V domains shown)
VH: B1 VH with V80A
VL: B1 VL with Y71F, Y87F
notes: as for B6
B16: 969gH1gL5 (antibody, human IgG4 S228P, kappa, name in Kabat numbering, V domains shown)
VH: B1 VH with V80A
VL: B1 VL with K38Q, Y71F, Y87F
notes: as for B6

Where a chain is given by its changes, count along the chain named. In names and notes the source's numbering stands. Bounds are passed on as bounds.

Chain of human CSF-1R on cells (THP-1 cells, transfected HEK293F cells, primary human monocytes) (P07333 20-972): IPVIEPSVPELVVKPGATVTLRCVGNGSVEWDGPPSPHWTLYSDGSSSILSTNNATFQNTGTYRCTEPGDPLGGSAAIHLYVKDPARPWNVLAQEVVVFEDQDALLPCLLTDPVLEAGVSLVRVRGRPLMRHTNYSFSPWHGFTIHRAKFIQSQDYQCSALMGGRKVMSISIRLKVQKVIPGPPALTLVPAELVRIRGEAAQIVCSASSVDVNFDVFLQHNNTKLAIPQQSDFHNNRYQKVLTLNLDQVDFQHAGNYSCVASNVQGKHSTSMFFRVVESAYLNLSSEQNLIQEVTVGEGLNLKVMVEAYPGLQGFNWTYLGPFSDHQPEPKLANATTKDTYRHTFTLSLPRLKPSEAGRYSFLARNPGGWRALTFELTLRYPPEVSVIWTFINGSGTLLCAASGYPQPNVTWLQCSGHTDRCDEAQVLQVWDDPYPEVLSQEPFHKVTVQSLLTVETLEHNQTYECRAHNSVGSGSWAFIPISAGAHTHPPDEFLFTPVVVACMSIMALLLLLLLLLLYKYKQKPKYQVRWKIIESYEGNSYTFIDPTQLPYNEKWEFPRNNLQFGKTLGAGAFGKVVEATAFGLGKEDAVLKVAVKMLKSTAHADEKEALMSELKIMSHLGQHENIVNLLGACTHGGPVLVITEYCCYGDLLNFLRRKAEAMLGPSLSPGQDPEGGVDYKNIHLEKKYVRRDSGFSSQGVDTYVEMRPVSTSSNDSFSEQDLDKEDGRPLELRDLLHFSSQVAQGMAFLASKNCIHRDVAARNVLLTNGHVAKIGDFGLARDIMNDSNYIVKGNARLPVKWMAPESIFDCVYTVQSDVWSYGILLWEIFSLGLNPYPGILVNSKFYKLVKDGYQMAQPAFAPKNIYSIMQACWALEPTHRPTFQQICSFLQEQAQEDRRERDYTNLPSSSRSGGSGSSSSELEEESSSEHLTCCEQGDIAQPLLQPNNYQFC

One assay addresses human CSF-1R on cells (THP-1 cells, transfected HEK293F cells, primary human monocytes) (human, UniProt P07333 20-972). In words: cell-based or functional assay.
For B1, the “IC50, MCP-1 inhibition assay, Donor 1” value was determined as 0.0463 µg/mL; the “IC50, MCP-1 inhibition assay, Donor 2” value worked out at 0.0061 µg/mL; the “IC50 ratio against chimeric 969.g0 (number in parentheses), Donor 1” value came out at 1.5 ratio; the “IC50 ratio against chimeric 969.g0 (number in parentheses), Donor 2” value stood at 1.1 ratio. The “Mean chimeric/graft IC50 ratio” value was 1.3 ratio.

The target of the next assay is T1, recombinant human CSF-1R (form not stated) (human, UniProt P07333 20-512, limits assumed).
T1 construct: for the ELISA no species is stated; also called recombinant CSF-1R; recombinant CSF-1R protein
T1 sequence (P07333 20-512 limits assumed): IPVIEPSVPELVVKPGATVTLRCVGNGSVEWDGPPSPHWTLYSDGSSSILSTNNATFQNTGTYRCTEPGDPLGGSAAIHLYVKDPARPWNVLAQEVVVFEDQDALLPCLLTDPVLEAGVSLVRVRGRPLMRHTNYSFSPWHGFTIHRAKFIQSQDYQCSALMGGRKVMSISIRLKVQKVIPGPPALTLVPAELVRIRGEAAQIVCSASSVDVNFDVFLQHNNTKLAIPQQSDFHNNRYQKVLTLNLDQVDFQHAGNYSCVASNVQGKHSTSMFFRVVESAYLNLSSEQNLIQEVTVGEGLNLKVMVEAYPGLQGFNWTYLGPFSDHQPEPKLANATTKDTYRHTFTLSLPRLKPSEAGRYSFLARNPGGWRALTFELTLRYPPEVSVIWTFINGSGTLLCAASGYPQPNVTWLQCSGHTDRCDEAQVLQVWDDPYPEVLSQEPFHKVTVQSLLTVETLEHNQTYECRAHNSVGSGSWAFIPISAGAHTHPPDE
Description: BIAcore, experiment 3 of 3. The procedure:
(§1) The assay format was capture of the anti-CSF-1R antibodies by immobilised anti-human IgG,F(ab′)₂, then a titration of hCSF-1R/Fc over the captured surface. BIA (Biomolecular Interaction Analysis) was performed using a BIAcore 3000 (GE Healthcare Bio-Sciences AB). All experiments were performed at 25° C. An AffiniPure F(ab′)₂ fragment goat anti-human IgG, F(ab′)₂ fragment specific (Jackson ImmunoResearch), was immobilised on a CM5 Sensor Chip (GE Healthcare Bio-Sciences AB) via amine coupling chemistry to a level of ˜5000 response units (RU). HBS-EP buffer (10 mM HEPES, pH 7.4, 0.15M NaCl, 3 mM EDTA, 0.005% Surfactant P20, GE Healthcare Bio-Sciences AB) was used as the running buffer with a flow rate of 10 μl/min.
(SPR reads the build-up and loss of mass on a sensor chip optically.)
The Kd is the constant that tells how readily two partners part at equilibrium. Usually koff stands for the first-order rate constant of dissociation. As a reminder, the kon is the rate constant with which the complex forms. For the molecule B2, the Kd was 3.9 pM, the koff worked out at 9.88e-06 s⁻¹ and the on-rate (kon) is 2.51e+06 M⁻¹ s⁻¹.

With B3, the Kd was determined as 2.5 pM, the koff is 5e-06 s⁻¹ and the on-rate constant (kon) came to 1.97e+06 M⁻¹ s⁻¹.

B1: the Kd turned out to be 4.6 pM, the koff is 1.15e-05 s⁻¹ and the kon came to 2.52e+06 M⁻¹ s⁻¹.

As to B4, the Kd is 2.6 pM, the koff amounted to 6.63e-06 s⁻¹ and the kon stood at 2.54e+06 M⁻¹ s⁻¹.

Another assay addresses T1, recombinant human CSF-1R (form not …). In words: BIAcore, DG/SG comparison, crude cell supernatant.
On to B5, for which the Kd was found to be 2 pM, the koff stood at 5e-06 s⁻¹ and the kon amounted to 2.54e+06 M⁻¹ s⁻¹.

Regarding B3, the Kd amounted to 2.3 pM, the koff turned out to be 5e-06 s⁻¹ and the kon was 2.18e+06 M⁻¹ s⁻¹.

For the next assay the target is unchanged. Description: BIAcore, mean of 3 (fourth row, unlabelled). The procedure: as §1
Take B2: the Kd worked out at 3.2 pM, the off-rate (koff) was 8.13e-06 s⁻¹ and the kon is 2.58e+06 M⁻¹ s⁻¹.

On to B3, for which the Kd stood at 2.8 pM, the koff was found to be 5.55e-06 s⁻¹ and the kon turned out to be 1.97e+06 M⁻¹ s⁻¹.

Regarding B1, the Kd stood at 3.7 pM, the koff was determined as 9.55e-06 s⁻¹ and the association rate constant (kon) came out at 2.56e+06 M⁻¹ s⁻¹.

In the case of B4, the Kd was found to be 3.3 pM, the koff turned out to be 8.14e-06 s⁻¹ and the kon worked out at 2.47e+06 M⁻¹ s⁻¹.

For another assay the target is unchanged. Description: BIAcore, experiment 2 of 3. The procedure: as §1
In the case of B2, the Kd was found to be 2.4 pM, the koff is 6.04e-06 s⁻¹ and the kon came out at 2.57e+06 M⁻¹ s⁻¹.

B3: the Kd was found to be 3.4 pM, the koff was found to be 6.65e-06 s⁻¹ and the kon was determined as 1.94e+06 M⁻¹ s⁻¹.

Regarding B1, the Kd worked out at 3.6 pM, the koff is 9.41e-06 s⁻¹ and the kon turned out to be 2.6e+06 M⁻¹ s⁻¹.

For B4, the Kd was determined as 3.7 pM, the koff was 8.95e-06 s⁻¹ and the kon amounted to 2.44e+06 M⁻¹ s⁻¹.

The next assay shares this target. Description: BIAcore, experiment 1 of 3. The procedure:
as §1
On to B2, for which the Kd amounted to 3.2 pM, the koff turned out to be 8.47e-06 s⁻¹ and the kon came to 2.65e+06 M⁻¹ s⁻¹.

As to B3, the Kd was 2.5 pM, the koff stood at 5e-06 s⁻¹ and the kon is 1.99e+06 M⁻¹ s⁻¹.

For the molecule B1, the dissociation constant (Kd) was found to be 3 pM, the koff came to 7.73e-06 s⁻¹ and the kon came to 2.57e+06 M⁻¹ s⁻¹.

Turning to B4, the Kd was found to be 3.6 pM, the koff was 8.84e-06 s⁻¹ and the kon came out at 2.43e+06 M⁻¹ s⁻¹.

The next assay shares this target. In words: BIAcore, humanisation stage, crude cell supernatant.
Turning to B2, the Kd is at most 2.4 pM, the koff was at most 5e-06 s⁻¹ and the on-rate (kon) came to 2.04e+06 M⁻¹ s⁻¹.

Regarding B6, the Kd is 4.4 pM, the koff was determined as 5e-06 s⁻¹ and the kon is 1.15e+06 M⁻¹ s⁻¹.

Turning to B3, the Kd turned out to be 4.1 pM, the koff was determined as 5e-06 s⁻¹ and the on-rate (kon) was 1.23e+06 M⁻¹ s⁻¹.

As to B1, the dissociation constant (Kd) is 4.4 pM, the off-rate (koff) came to 9.64e-06 s⁻¹ and the on-rate constant (kon) was 2.2e+06 M⁻¹ s⁻¹.

For the molecule B7, the Kd is 6.5 pM, the koff came to 5e-06 s⁻¹ and the on-rate (kon) came to 768000 M⁻¹ s⁻¹.

In the case of B8, the Kd was determined as 4.3 pM, the koff turned out to be 5e-06 s⁻¹ and the kon came to 1.17e+06 M⁻¹ s⁻¹.

For B9, the Kd stood at 2.1 pM, the koff turned out to be 5e-06 s⁻¹ and the kon came out at 2.39e+06 M⁻¹ s⁻¹.

Regarding B10, the equilibrium dissociation constant (Kd) is 3.3 pM, the koff was determined as 5e-06 s⁻¹ and the on-rate constant (kon) stood at 1.5e+06 M⁻¹ s⁻¹.

Turning to B11, the Kd is 4.4 pM, the koff was determined as 6.23e-06 s⁻¹ and the on-rate constant (kon) stood at 1.4e+06 M⁻¹ s⁻¹.

For B12, the Kd was found to be 3.4 pM, the koff is 5e-06 s⁻¹ and the kon came out at 1.46e+06 M⁻¹ s⁻¹.

Regarding B13, the Kd amounted to 3.4 pM, the off-rate (koff) stood at 6.11e-06 s⁻¹ and the on-rate (kon) amounted to 1.78e+06 M⁻¹ s⁻¹.

In the case of B14, the Kd was determined as 3.4 pM, the off-rate (koff) was 7.29e-06 s⁻¹ and the kon stood at 2.12e+06 M⁻¹ s⁻¹.

Take B4: the Kd turned out to be 2.3 pM, the off-rate constant (koff) was found to be 5.23e-06 s⁻¹ and the kon came to 2.27e+06 M⁻¹ s⁻¹.

Take B15: the Kd was determined as 2.8 pM, the koff was found to be 5e-06 s⁻¹ and the kon stood at 1.8e+06 M⁻¹ s⁻¹.

For B16, the equilibrium dissociation constant (Kd) worked out at 6.6 pM, the koff was 6.11e-06 s⁻¹ and the on-rate constant (kon) amounted to 926000 M⁻¹ s⁻¹.
